Measurements from patent US20110091479A1 (PIERRE FABRE MEDICAMENT, published 2011).

B1: 2D10 (antibody, V domains shown)
VH: EVNLVESGGILVKPGGSLRLSCAASGFTFSNYAMSWVRQTPEKRLEWVASIGSAGYIHYPDSVKGRFTISRDNARNILYLQMSSLRSEDTAMYYCAREGGLVWFAYWGQGTLVTVSA
VL: ETTVTQSPASLSVATGEKVTIRCITSTDIDDDMNWYQQKPGEPPKLLISEGNTLRPGVPSRFSSSGYGTDFVLTIENTLSEDVADYYCLQSDKMPLTFGAGTKLELK
notes: also called hybridoma CNCM I-3214
B2: 12B1 (antibody, V domains shown)
VH: QVQLKESGPDLVAPSQSLSITCTVSGFSLTNYGVHWVRQFPGKGLEWLGVIWAGGNTNYNSALMSRLTISKDNSKSQVFLKMNSLQTDDTAVYYCAREYGSTYVAWFAHWGQGTLVTVSS
VL: ENVLTQSPAIMSASPGEKVTMTCGASSSVSSSFLHWYQQKSGASPKLWIYSTSNLASGVPTRFSGSGSGTSYSLTISSVEAEDAATYYCQQYSGYPLTFGAGTKLELK
B3: 12D5 (antibody, V domains shown)
VH: QVQLKESGPGLVAPSQSLSITCTVSGFSLNEYGVSWIRQPPGKGLEWLGVIWGGRDTYYHSPLKSRLSITKDNSKSQVFLKMNSLQTDDTAMYYCAKHEGMDYWGQGTSVTVSS
VL: DIVMTQSQKFMSTSVGDRVSVTCKASQNVVTNVAWYQHKPGHSPKPLIYSASYRYSGVPDRFTGSGSGTDFTLTINNVQSEDLAEYFCHQYNNFPLTFGAGTKLELK
B4: 13F5 (antibody, V domains shown)
VH: QAQLQQPGAVLVRPGASVKLSCKASSYSFTDYWMNWVKRRPGQGLQWIGLIHPSDSETRLDQNFKDKATLTVDKFSSTAYMQLNSPTSEDSAVYYCTRSVIYYGNYRWYFDVWGAGTTVTVSS
VL: DVLMTQTPLSLPVSLGDQASISCRSSQTIIHSNGNTYLEWYLQKPGQSPKLLIYKVSNRFSGVPDRFSGSGSGTDFTLKISRVEAEDLGVYYCFQGSHVPYTFGGGTKLEIK
notes: also called hybridoma CNCM I-3193

How the values were obtained:
[1] = biological target: human insulin-like growth factor I receptor IGF-IR (human) (UniProt P08069); experiment: displacement of [125I]IGF-1 on R+ intact cells expressing IGF-IR
[2] = biological target: T1, human insulin-like growth factor I receptor IGF-IR (human, UniProt P08069 31-1367); experiment: as above
T1 construct: whole, on cells; One molecule is used for the receptor on MCF-7 cells (endogenous), on Sf9 IGF-1R+ cells and on R+ fibroblasts (R- cells transfected with IGF-IR cDNA); the cell is named under assay; also called IGF-1R; IGF-I receptor

[3] = biological target: T2, Hybrid-RsA (insulin/IGF-I hybrid receptor with IR isoform A) (human, UniProt P08069 31-1367; P06213 28-1370); experiment: displacement of [125I]-IGF1 on immunocaptured Hybrid-RsA
T2 construct: Heterodimer of an IGF-IR half and an IR-A half, captured on plates coated with antibody 83-7; also called HR-A; hybrid receptors A

[4] = biological target: T1, human insulin-like growth factor I …; experiment: cell-based or functional assay

Molecule	IC50 [1] [nM]	IC50 [2] [nM]	IC50 [3] [nM]	proliferative index of MCF-7 cells at 50 ng/ml IGF1, antibody 5 µg/ml [4]
αIR3 (antibody)	0.05			
B1		0.15	0.2	< 5
B2				< 5
B3				< 5
B4		0.2	0.35	< 5
